Assay results reported in patent publication US20120093724.

Columns and labels:
semenogelin II = semenogelin II (UniProt Q02383)
semenogelin I = semenogelin I (UniProt P04279)
semenogelin I, sequence (P04279 24-462): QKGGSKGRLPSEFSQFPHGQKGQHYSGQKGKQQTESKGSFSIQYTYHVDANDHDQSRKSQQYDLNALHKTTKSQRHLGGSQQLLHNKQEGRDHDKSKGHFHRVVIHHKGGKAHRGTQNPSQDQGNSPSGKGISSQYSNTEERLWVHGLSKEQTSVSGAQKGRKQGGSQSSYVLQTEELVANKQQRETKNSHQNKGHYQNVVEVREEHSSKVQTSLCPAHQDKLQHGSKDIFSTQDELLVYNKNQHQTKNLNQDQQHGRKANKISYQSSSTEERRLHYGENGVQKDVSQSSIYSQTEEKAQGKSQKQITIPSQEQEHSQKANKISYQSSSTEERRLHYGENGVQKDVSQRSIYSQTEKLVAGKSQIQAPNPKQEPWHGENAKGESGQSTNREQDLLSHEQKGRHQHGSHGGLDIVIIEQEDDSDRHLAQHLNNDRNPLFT

semenogelin II, sequence (Q02383 24-582): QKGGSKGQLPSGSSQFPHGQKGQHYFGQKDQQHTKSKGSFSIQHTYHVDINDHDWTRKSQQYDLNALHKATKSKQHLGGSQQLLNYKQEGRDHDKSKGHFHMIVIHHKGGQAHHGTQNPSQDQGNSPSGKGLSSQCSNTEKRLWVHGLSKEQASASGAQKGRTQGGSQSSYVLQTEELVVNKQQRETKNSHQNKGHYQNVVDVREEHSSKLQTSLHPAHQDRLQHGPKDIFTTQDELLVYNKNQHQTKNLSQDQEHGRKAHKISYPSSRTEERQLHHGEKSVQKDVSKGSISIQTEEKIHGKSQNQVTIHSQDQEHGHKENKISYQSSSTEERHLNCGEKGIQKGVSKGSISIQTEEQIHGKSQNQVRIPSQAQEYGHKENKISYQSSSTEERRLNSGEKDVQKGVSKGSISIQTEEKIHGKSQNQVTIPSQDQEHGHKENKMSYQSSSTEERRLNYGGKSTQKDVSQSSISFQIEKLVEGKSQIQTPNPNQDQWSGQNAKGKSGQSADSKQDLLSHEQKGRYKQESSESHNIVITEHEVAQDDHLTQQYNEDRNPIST

human glandular kallikrein 2
number of cleavage sites sequenced (cleavage sites) (semenogelin II): 7 | proteolytic cleavage (fragments by HPLC) (semenogelin II): Cleavage of either Sg I or Sg II with hK2 results in generation of a multitude of peptides | number of cleavage sites sequenced (cleavage sites) (semenogelin I): 4 | proteolytic cleavage (fragments by HPLC) (semenogelin I): Cleavage of either Sg I or Sg II with hK2 results in generation of a multitude of peptides
